We go through one substance from PMC6748948, “A Bone Morphogenetic Protein (BMP)-derived Peptide Based on the Type I Receptor-binding Site Modifies Cell-type Dependent BMP Signalling” (Scientific Reports, 2019).

The assay concerns the target Peptide P3* (BMP9-based peptide from the ALK1-binding site, biotinylated at the N-terminus) (UniProt Q9UK05). In words: SPR; Biacore T200; biotinylated P3* immobilised on streptavidin (SA) chip; ALK1-Fc flowed over, injection 4 min, otherwise as for the CM5 assays; steady-state fit.

Sequence of Peptide P3* (BMP9-based peptide from the ALK1-binding site, biotinylated at the N-terminus) (Q9UK05 320-429): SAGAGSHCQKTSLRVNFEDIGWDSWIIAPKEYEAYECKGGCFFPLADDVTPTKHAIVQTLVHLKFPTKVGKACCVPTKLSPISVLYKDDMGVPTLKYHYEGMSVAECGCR
Sequence of ALK1-Fc (activin receptor like kinase 1, Fc fusion) (P37023 22-118): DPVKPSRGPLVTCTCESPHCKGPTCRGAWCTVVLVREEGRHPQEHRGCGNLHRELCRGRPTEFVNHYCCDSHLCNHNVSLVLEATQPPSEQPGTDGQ

As to “ALK1-Fc (activin receptor like kinase 1, Fc fusion) (from UniProt P37023 22-118)”, the Kd turned out to be 30 mM.
